Data: article PMC9321951, “Thiol redox switches regulate the oligomeric state of cyanobacterial Rre1, RpaA and RpaB response regulators” (Febs Letters, 2022)
Values joined by “and” are separate entries in the source; they are usually repeats but may differ in a detail not shown here. Identical values can stand only once.

What was measured:
[1] = target: Regulator of Photosynthesis and Photopigment-related gene expression A (RppA), full-length, MBP-tagged (Synechocystis sp. PCC 6803) (UniProt Q55933); assay: non-reducing urea-SDS/PAGE; 2.5 µM RppA with 2 mM diamide, 30 min, room temperature; non-reducing SDS-6 M urea-8% PAGE
[2] = target: Regulator of Photosynthesis and Photopigment-related gene expression A (RppA), full-length, MBP-tagged (Synechocystis sp. PCC 6803) (UniProt Q55933); assay: SEC; RppA oxidised with 2 mM diamide, desalted; 0.85 mg on Superdex S200 10/300GL Increase; 100 mM HEPES pH 8.0, 100 mM NaCl; approximate masses from a calibration curve
[3] = target: Regulator of Phycobilisome Association B (RpaB), full-length, MBP-tagged (Synechocystis sp. PCC 6803); assay: non-reducing urea-SDS/PAGE; 2.5 µM Rre1, RpaA or RpaB, air-exposed untreated or with 2 mM diamide or 2 mM H2O2, 30 min, room temperature; non-reducing SDS-6 M urea-8% PAGE; shows disulfide-linked oligomers
[4] = target: Regulator of Phycobilisome Association B (RpaB), full-length, MBP-tagged (Synechocystis sp. PCC 6803); assay: SEC; RpaB oxidised with 2 mM H2O2, desalted; 0.85 mg on Superdex S200 10/300GL Increase; 5% glycerol, 300 mM NaCl, 100 mM HEPES pH 8.0; approximate masses from a calibration curve
[5] = target: the molecule itself; assay: SEC; Rre1 or RpaA oxidised with 2 mM H2O2, desalted; 0.85 mg on Superdex S200 10/300GL Increase; 100 mM HEPES pH 8.0, 100 mM NaCl; approximate masses from a calibration curve

With “Regulator of Photosynthesis and Photopigment-related gene expression A (RppA), full-length, MBP-tagged (from UniProt Q55933 1-234) (natural protein)” the stoichiometry N [1] was 3 and the stoichiometry N [2] was 3.

For “Regulator of Phycobilisome Association B (RpaB), full-length, MBP-tagged (natural protein)”, the stoichiometry N [3] was 2 and the stoichiometry N [4] was 4 and 3.

B1: Response Regulator 1 (Rre1), full-length, MBP-tagged (natural protein, Synechocystis sp. PCC 6803, UniProt P72781 1-231, looked up)
chain: MAEPISLLLVDDEPGVRESVQAFLEDSGDFKVDLAANATEAWDYLQHHLPALVISDIMMPQVDGYQFLQKLREDARFQSLPVVFLTARGMTGDRIQGYQTGCDAFLSKPFDPDELEAIVRNLLARQQASSDAGSESAKLQEIYQEIRALKEQIGQPSGIHTTPSPIKLDFTPREQSVLDLVSQGLMNKEIAAQLKTSVRNVEKYVSRLFTKTGTNSRTELVRFALQHGLTE
notes: Rre1 (response regulator 1), Synechocystis sp; Cloned KpnI/XhoI into pETG-41A; theoretical mass of the MBP-tagged monomer printed as 75 kDa
For B1, the “stoichiometry N” value [5] was 3 and 4.
